Experiments:
[1] = molecular target: L-SIGN expressed on K562 cells (human) (UniProt Q9H2X3); experiment: flow cytometry on K562/L-SIGN cells
[2] = molecular target: recombinant human L-SIGN (human) (UniProt Q9H2X3); experiment: ELISA on recombinant L-SIGN
[3] = molecular target: recombinant human DC-SIGN (human) (UniProt Q9NNX6); experiment: ELISA on recombinant DC-SIGN
Chain of UniProt Q9NNX6 (Q9NNX6 59-404 limits assumed): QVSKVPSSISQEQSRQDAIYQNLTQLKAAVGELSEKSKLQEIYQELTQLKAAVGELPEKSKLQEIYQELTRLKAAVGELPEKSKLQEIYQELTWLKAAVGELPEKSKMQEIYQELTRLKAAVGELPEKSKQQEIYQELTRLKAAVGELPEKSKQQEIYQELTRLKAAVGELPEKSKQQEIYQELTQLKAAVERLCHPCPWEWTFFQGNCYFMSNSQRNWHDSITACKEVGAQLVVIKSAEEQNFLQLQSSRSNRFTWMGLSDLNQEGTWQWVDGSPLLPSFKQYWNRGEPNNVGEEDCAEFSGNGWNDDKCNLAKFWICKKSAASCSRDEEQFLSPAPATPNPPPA

B1: additional IgG1k antibody clone A10 (antibody, from a related filing, V domains shown)
VH: EVQLQQSGPELEKPGASVKISCKASGYSFTGYNMNWVKQSNGKSLEWIGNIDPYYGDITYNQKFKGKATLTVDKSSSTAYMQLKSLTSEDSAVYYCARTATALYTMDYWGQGTSVTVSS
VL: EIVLTQSPAIMSASLGERVTMTCTASSSVSSSYLHWYQQKPGSSPKLWIYSTSNLASGVPARFSGSGSGTSYSLTISSMEAEDAATYYCHQYHRSPQTFGGGTKLEIK
B1 gave a Geo. Mean Flourecence [1] of 21.3, an OD405 [2] of 2.9 OD405 and an OD405 [3] of 0.1 OD405.
